Test results taken from the supplement of paper PMC10567573.

B1: PTPRD (parent)
chain: ITWFKDFLPVDTSNNNGRIKQLRS
B2: ATL3 (parent)
chain: QELEEEIKELYENFCKHNGSKNVF

Variants of: B1
Assay: protein stability index of a GFP-peptide fusion (GPS, HEK-293T) (PSI 1-6); higher = more stable
Settings: c terminus: a fixed tail appended
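Note: lentivirally expressed fusions sorted by FACS into six bins by GFP to DsRed ratio, PSI derived from sequencing read proportions per bin multiplied by bin number.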

| Variant | protein stability index |
| --- | --- |
| I1C | 1.9 |
| I1G | 3.39 |
| I1A | 3.26 |
| I1E | 3.66 |
| I1D | 3.88 |
| I1F | 2.03 |

Variants of: B2
Assay: as above
Settings: c terminus: a fixed tail appended

| Variant | protein stability index |
| --- | --- |
| I7T | 4.24 |
| I7S | 4.09 |
| I7V | 3.75 |
| I7W | 2.26 |
| I7R | 4.17 |
| I7Y | 4.21 |
| E9V | 2.4 |
| E9Y | 2.09 |
| E9P | 3.24 |
| E9S | 2.39 |
| E9Q | 2.22 |
| E9G | 2.44 |
| E9W | 2.41 |
| E9K | 2.38 |
| E9I | 1.95 |
| E9T | 2.59 |
| E9H | 2.27 |
| E9D | 3.39 |
| E9N | 2.77 |
| E9F | 1.86 |
| E9L | 1.64 |
| E9C | 2.69 |
| E9M | 2.47 |
| E9R | 2.59 |
| E9A | 2.37 |
| V23L | 2.68 |

| Variant | protein stability index |
| --- | --- |
| V23I | 2.62 |
| V23R | 3.44 |
| V23Q | 2.68 |
| V23F | 2.22 |
| V23E | 3.07 |
| V23K | 2.89 |
| V23H | 3.56 |
| V23A | 2.73 |
| V23Y | 1.94 |
| V23W | 2.85 |
| V23C | 2.27 |
| V23P | 2.61 |
| V23T | 2.49 |
| V23S | 2.38 |
| V23D | 2.16 |
| V23M | 3.24 |
| V23N | 3.06 |
| V23G | 2.94 |
| K16G | 3.51 |
| K16V | 3.15 |
| K16T | 3.03 |
| K16E | 3.81 |
| K16A | 3.17 |
| K16H | 2.74 |
| K16M | 2.79 |
| K16Y | 2.49 |

| Variant | protein stability index |
| --- | --- |
| K16I | 2.86 |
| K16R | 2.73 |
| K16W | 2.91 |
| K16P | 3.88 |
| K16C | 3.43 |
| K16D | 3.53 |
| K16N | 2.36 |
| K16S | 2.99 |
| K16F | 3.11 |
| K16L | 3.09 |
| K16Q | 3.11 |
| E12A | 2.37 |
| E12P | 3.31 |
| E12G | 3.27 |
| E12K | 2.67 |
| E12W | 1.98 |
| E12M | 2.41 |
| E12V | 2.42 |
| E12R | 2.19 |
| E12F | 2.56 |
| E12N | 2.53 |
| E12T | 2.83 |
| E12L | 2.12 |
| E12Y | 2.03 |
| E12H | 2.81 |
| E12D | 2.89 |

| Variant | protein stability index |
| --- | --- |
| E12Q | 2.39 |
| E12C | 2.35 |
| E12S | 3.13 |
| E12I | 2.27 |
| N22Q | 2.98 |
| N22A | 2.96 |
| N22W | 1.48 |
| N22G | 2.28 |
| N22Y | 2.05 |
| N22I | 2.48 |
| N22M | 2.8 |
| N22F | 2.59 |
| N22E | 2.38 |
| N22H | 2.3 |
| N22V | 2.62 |
| N22S | 2.96 |
| N22L | 2.57 |
| N22C | 2.34 |
| N22K | 3.17 |
| N22R | 3.3 |
| N22P | 3.25 |
| N22T | 2.16 |
| N22D | 1.91 |
| N18I | 2.04 |
| N18F | 2.3 |
| N18E | 2.36 |

| Variant | protein stability index |
| --- | --- |
| N18D | 2.28 |
| N18M | 2.69 |
| N18C | 2.75 |
| N18S | 2.42 |
| N18R | 2.86 |
| N18Q | 2.68 |
| N18T | 2.6 |
| N18V | 2.58 |
| N18K | 2.55 |
| N18Y | 2.37 |
| N18W | 2.85 |
| N18G | 2.34 |
| N18P | 2.72 |
| N18H | 2.94 |
| N18A | 2.24 |
| N18L | 3.23 |
| F24G | 2.73 |
| F24P | 2.74 |
| F24T | 3.11 |
| F24D | 2.38 |
| F24N | 3.07 |
| F24A | 3.45 |
| F24R | 3.24 |
| F24L | 2.56 |
| F24Q | 2.93 |
| F24C | 3.17 |

| Variant | protein stability index |
| --- | --- |
| F24Y | 2.65 |
| F24S | 3.28 |
| F24E | 2.9 |
| F24W | 2.46 |
| F24H | 3.37 |
| F24V | 3.01 |
| F24I | 2.48 |
| F24M | 3.06 |
| G19F | 2.65 |
| G19N | 2.69 |
| G19M | 2.46 |
| G19T | 2.25 |
| G19V | 2.35 |
| G19I | 2.99 |
| G19D | 2.46 |
| G19E | 2.11 |
| G19C | 2.31 |
| G19K | 2.4 |
| G19Y | 2.85 |
| G19L | 2.55 |
| G19W | 1.91 |
| G19H | 2.87 |
| G19R | 2.54 |
| G19A | 2.59 |
| G19P | 3.03 |
| G19Q | 2.73 |

| Variant | protein stability index |
| --- | --- |
| G19S | 3.18 |
| S20D | 1.97 |
| S20F | 2 |
| S20L | 2.41 |
| S20G | 2.48 |
| S20Q | 2.45 |
| S20I | 2.54 |
| S20K | 3.17 |
| S20W | 2.16 |
| S20V | 2.93 |
| S20P | 3.46 |
| S20E | 2.04 |
| S20T | 2.7 |
| S20H | 2.59 |
| S20C | 2.28 |
| S20A | 2.66 |
| S20M | 2.24 |
| S20N | 2.48 |
| S20Y | 2.29 |
| S20R | 3.77 |
| K21Y | 1.55 |
| K21A | 2.25 |
| K21V | 1.82 |
| K21E | 1.96 |
| K21I | 2.12 |
| K21Q | 2.55 |

| Variant | protein stability index |
| --- | --- |
| K21D | 2.11 |
| K21F | 1.65 |
| K21P | 2.37 |
| K21G | 2.49 |
| K21S | 1.57 |
| K21T | 2.08 |
| K21H | 2.16 |
| K21N | 2.42 |
| K21R | 2.12 |
| K21L | 2.15 |
| K21W | 1.81 |
| K21M | 1.85 |
| K21C | 2.1 |
| C15R | 3.3 |
| C15F | 3.03 |
| C15W | 3.73 |
| C15H | 4.12 |
| C15Y | 3.77 |
| C15K | 3.49 |
| C15D | 4.08 |
| C15N | 3.97 |
| C15P | 3.91 |
| C15L | 1.97 |
| C15T | 3.5 |
| C15V | 2.27 |
| C15I | 2.07 |

| Variant | protein stability index |
| --- | --- |
| C15Q | 3.67 |
| C15E | 3.86 |
| C15G | 4.07 |
| C15M | 2.02 |
| C15A | 3.86 |
| C15S | 3.89 |
| H17F | 3.2 |
| H17L | 2.99 |
| H17W | 2.46 |
| H17C | 2.65 |
| H17S | 2.62 |
| H17V | 2.72 |
| H17T | 2.63 |
| H17E | 2.51 |
| H17Y | 2.42 |
| H17G | 2.75 |
| H17N | 2.51 |
| H17K | 2.67 |
| H17D | 2.69 |
| H17P | 3.34 |
| H17M | 2.96 |
| H17I | 2.94 |
| H17Q | 2.44 |
| H17A | 2.52 |
| H17R | 2.6 |
| F14R | 4.1 |

| Variant | protein stability index |
| --- | --- |
| F14G | 4.42 |
| F14W | 2.58 |
| F14E | 5.25 |
| F14Y | 3.53 |
| F14A | 4.29 |
| F14C | 3.75 |
| F14S | 4.58 |
| F14D | 4.46 |
| F14P | 4.37 |
| F14T | 3.69 |
| F14N | 4.55 |
| F14I | 3.16 |
| F14H | 4.07 |
| F14Q | 4.49 |
| F14L | 3.27 |
| F14V | 3.53 |
| F14K | 4.5 |
| F14M | 4.06 |
| Y11L | 3.61 |
| Y11F | 2.64 |
| Y11C | 4.16 |
| Y11R | 4.39 |
| Y11E | 4.54 |
| Y11G | 4.74 |
| Y11S | 4.61 |
| Y11I | 3.64 |

| Variant | protein stability index |
| --- | --- |
| Y11D | 5.09 |
| Y11Q | 4.58 |
| Y11K | 4.88 |
| Y11P | 5.15 |
| Y11N | 4.68 |
| Y11V | 3.93 |
| Y11T | 4.3 |
| Y11M | 3.96 |
| Y11H | 4.46 |
| Y11A | 4.25 |
| Y11W | 2.96 |
| L10E | 4.5 |
| L10V | 4.12 |
| L10G | 4.41 |
| L10F | 3.23 |
| L10K | 3.92 |
| L10H | 4.33 |
| L10N | 4.05 |
| L10D | 4.46 |
| L10A | 3.48 |
| L10P | 4.23 |
| L10M | 3.02 |
| L10I | 3.14 |
| L10R | 4.2 |
| L10Y | 3.92 |
| L10T | 4.54 |

| Variant | protein stability index |
| --- | --- |
| L10Q | 3.88 |
| L10W | 3.06 |
| L10S | 4.25 |
| L10C | 4.14 |
| K8G | 3.67 |
| K8D | 3.41 |
| K8R | 2.24 |
| K8H | 2.86 |
| K8P | 4.37 |
| K8S | 3.37 |
| K8T | 3.31 |
| K8E | 3.63 |
| K8I | 2.36 |
| K8Q | 3.01 |
| K8C | 3.01 |
| K8N | 2.45 |
| K8A | 2.96 |
| K8V | 3.19 |
| K8L | 2.24 |
| K8F | 2.48 |
| K8W | 2.68 |
| K8M | 2.53 |
| K8Y | 2.37 |
| N13Y | 2.34 |
| N13T | 2.86 |
| N13L | 1.83 |

| Variant | protein stability index |
| --- | --- |
| N13H | 2.83 |
| N13F | 2.72 |
| N13W | 2.37 |
| N13P | 3.73 |
| N13D | 3.15 |
| N13C | 2.26 |
| N13G | 3.76 |
| N13I | 2.13 |
| N13Q | 2.13 |
| N13R | 2.55 |
| N13M | 1.79 |
| N13A | 1.72 |
| N13E | 2.11 |
| N13V | 2.89 |
| N13S | 2.6 |
| N13K | 2.15 |
